Measurements as given in FireProtDB (doi:10.1038/srep15545).

B1: Divalent-cation tolerance protein CutA, P69488 (parent)
chain: MLDEKSSNTASVVVLCTAPDEATAQDLAAKVLAEKLAACATLIPGATSLYYWEGKLEQEYEVQMILKTTVSHQQALLECLKSHHPYQTPELLVLPVTHGDTDYLSWLNASLR

Variants of: B1
Details: Escherichia coli (strain K12), pH 9, Thermal, DSC, Glycine 50mM, reversible: yes, whole UniProt chain shown

Row | Variant | Tm (structure 1NAQ) [°C] | change of melting temperature, mutant - wild type (higher = more stable) (structure 1NAQ) [°C] | unfolding enthalpy (calorimetric) (structure 1NAQ) [kcal/mol] | Tm (structure 4Y65) [°C] | change of melting temperature, mutant - wild type (higher = more stable) (structure 4Y65) [°C] | unfolding enthalpy (calorimetric) (structure 4Y65) [kcal/mol]
1 | MLDEKSSNTASVVVLCTAPDEATAQDLAAKVLAEKLAACATLIPGATSLYYWEGKLEQEYVVQMILKTTVSHQQALLECLKSHHPYQTPELLVLPVTHGDTDYLSWLNASLR [E61V] | 101 | 15.4 | 293 |  |  | 
2 | MLDEKSSNTASVVVLCTAPDEATAQDLAAKVLAEKLAACATLIPGATSLYYWEGKLEQEYEVQMILKTTVSHQQALLECLKSHHPYQRPELLVLPVTHGDTDYLSWLNASLR [T88R] | 118 | 32 | 359 |  |  | 
3 | MLDEKSSNTASVVVLCTAPDEATAQDLAAKVLAEKLAACATLIPGATSLYYWEGKLEQEYEVQMILKTTVSHQQALLECLKSHHPYKRPELLVLPVTHGDTDYLSWLNASLR [Q87K T88R] | 122 | 36.8 | 378 |  |  | 
4 | MLDEKSSNTASVVVLCKAPDEATAQDLAAKVLAEKLAACATLIPGATSLYYWEGKLEQEYEVQMILKTTVSHQQALLECLKSHHPYQTPELLVLPVTHGDTDYLSWLNASLR [T17K] | 107 | 21.6 | 314 |  |  | 
5 | MLDEKSSNTAVVVVLCTAPDEATAQDLAAKVLAEKLAACATLIPGATSLYYWEGKLEQEYEVQMILKTTVSHQQALLECLKSHHPYQTPELLVLPVTHGDTDYLSWLNASLR [S11V] | 103 | 17.1 | 311 |  |  | 
6 | MLDEKSSNTASVVVLCTAPDEATAQDLAAKVLAEKLAADATLIPGATSLYYWEGKLEQEYEVQMILKTTVSHQQALLECLKSHHPYQTPELLVLPVTHGDTDYLSWLNASLR [C39D] |  |  |  | 105 | 19.8 | 286
7 | MLDEKSSNTAVVVVLCTAPDEATAQDLAAKVLAEKLAACATLIPGATSLYYWEGKLEQEYVVQMILKTTVSHQQALLECLKSHHPYQTPELLVLPVTHGDTDYLSWLNASLR [S11V E61V] | 113 | 27.6 | 375 |  |  | 
8 | MLDEKSSNTASVVVLCTAPDEATAQDLAAKVLAEKLAACATLIPGATSLYYWEGKLEQEYEVQMILKTTVSHQQALLECLKKHHPYQTPELLVLPVTHGDTDYLSWLNASLR [S82K] | 117 | 31.3 | 353 |  |  | 
9 | MLDEKSSNTASVVVLCTAPDEATAQDLAAKVLAEKLAACATLIPGATSLYYWEGKLEQEYEVQMILKTTVSHQQALLECLKRHHPYQTPELLVLPVTHGDTDYLSWLNASLR [S82R] | 117 | 31.5 | 346 |  |  | 
10 | MLDEKSSNTASVVVLCTAPDEATAQDLAAKVLAEKLAACATLIPGATKLYYWEGKLEQEYEVQMILKTTVSHQQALLECLKSHHPYQTPELLVLPVTHGDTDYLSWLNASLR [S48K] | 112 | 26.6 | 280 | 118 | 32.7 | 337
11 | MLDEKSSNTASVVVLCTAPDEATAQDLAAKVLAEKLAACATLIPGATSLYYWEGKLEQEYEVQMILKTTVSHQQALLECLKSHHPYQTPELLVLPVTHGDTDYLSWLNARLR [S110R] | 117 | 31.7 | 391 |  |  | 
12 | MLDEKSSNTASVVVLCTAPDEATAQDLAAKVLAEKLAACATLIPGATSLYYWEGKLEQEYEVQMILKTTVSHQQALLECLKSHHPYKTPELLVLPVTHGDTDYLSWLNASLR [Q87K] | 117 | 31.2 | 340 |  |  | 
13 | MLDEKSSNTASVVVLCTAPDEATAQDLAAKVLAEKLAACATLIPGATSLYYWEGKLEQEYEVQMILKTTVSKQQALLECLKSHHPYQTPELLVLPVTHGDTDYLSWLNASLR [H72K] | 118 | 32.8 | 364 |  |  | 
14 | MLDEKSSNTASVVVLCTAPDEATAQDLAAKVLAEKLAACATLIPGATKLYYWEGKLEQEYEVQMILKTTVSKQQALLECLKKHHPYKRPELLVLPVTHGDTDYLSWLNASLR [S48K H72K S82K Q87K T88R] | 137 | 51.2 | 416 |  |  | 
